Holding throughout (details): remark: other sources report otherwise
Assay [1] deals with SARS-CoV-2 RBD domain, Wuhan (SARS-CoV-2). The assay can be described thus: RBD-ACE2 competition ELISA. On the set-up: unit not given beside the values.
The target is the same in assay [2]. Description: competition ELISA vs bio-Cv2.1169. (In general: An ELISA detects its analyte on a solid surface through an enzyme-linked reagent.)
In assay [3] the target is SARS-CoV-1 Spike ectodomain (SARS-CoV-1), P59594. The assay can be described thus: ELISA, coated antigen.
The target in assay [4] is SARS-CoV-2 RBD domain, Wuhan (SARS-CoV-2). Description: ELISA, coated antigen.
Assay [5] concerns the target CoV-MERS Spike ectodomain (MERS-CoV), K9N5Q8. The assay can be described thus: ELISA, coated antigen.
The target of assay [6] is SARS-CoV-2 RBD domain, Wuhan (SARS-CoV-2). Description: competition ELISA vs bio-Cv2.3194.
Assay [7] has the same target. The assay can be described thus: SPR (Biacore), antibody immobilised. (In general: Surface plasmon resonance follows binding to a sensor surface in real time, without labels.)
The target of assay [8] is T1, SARS-CoV-2 Spike (S) protein on cells (S-Flow assay) (SARS-CoV-2), P0DTC2. The assay can be described thus: S-Flow flow cytometry, spike-expressing cells.
Assay [9] concerns the target SARS-CoV-2 RBD domain, Wuhan (SARS-CoV-2). The assay can be described thus: competition ELISA vs bio-Cv2.1353.
Assay [10] has the same target. Description: competition ELISA vs bio-Cv2.5213.
Assay [11] concerns the target T1, SARS-CoV-2 Spike (S) protein on cells …. Description: flow cytometry, transfected cells.
Assay [12] deals with SARS-CoV-2 RBD domain, Wuhan (SARS-CoV-2). The assay can be described thus: ELISA. On the set-up: unit not given beside the values.
Assay [13] has the same target. The assay can be described thus: competition ELISA vs bio-Cv2.3235.
Assay [14] has the same target. Description: RBD-ACE2 competition ELISA. On the set-up: unit not given beside the values. The source holds these as a separate data set.
The target is the same in assay [15]. Description: SPR (Biacore), antibody coupled to CM5 chip, viral protein as analyte.
Assay [16] has the same target. Description: ELISA. On the set-up: unit not given beside the values. The source holds these as a separate data set.
Assay [17] has the same target. Description: ELISA. On the set-up: unit not given beside the values. This is another data set of the same source.
The target is the same in assay [18]. The assay can be described thus: RBD/ACE2 blocking ELISA.
Assay [19] shares this target. Description: ELISA.
Assay [20] addresses T1, SARS-CoV-2 Spike (S) protein on cells …. The assay can be described thus: flow cytometry (Mock 2.5).

Substitutions are numbered along the chain they refer to.

B1: Cv2.5213 (recombinant human IgG1) (antibody)
heavy: EVQLVESGGGLIQPGGSLRLSCAASGFTVSSNYMSWVRQAPGKGLEWVSLIYSGGSTYYADSVKGRFTISRDNSKNTLYLQMNSLRAEDTAVYYCARDLNYYGMDVWGQGATVTVSSASTKGPSVFPLAPSSKSTSGGTAALGCLVKDYFPEPVTVSWNSGALTSGVHTFPAVLQSSGLYSLSSVVTVPSSSLGTQTYICNVNHKPSNTKVDKKVEPKSCDKTHTCPPCPAPELLGGPSVFLFPPKPKDTLMISRTPEVTCVVVDVSHEDPEVKFNWYVDGVEVHNAKTKPREEQYNSTYRVVSVLTVLHQDWLNGKEYKCKVSNKALPAPIEKTISKAKQPREPQVYTLPPSRDELTKNQVSLTCLVKGFYPSDIAVEWESNGQPENNYKTTPPVLDSDGSFFLYSKLTVDKSRWQQGNVFSCSVMHEALHNHYTQKSLSLSPGK
light: not shown
What is called Kd is the concentration at which binding is half-saturated. In the case of B1, the figures for the AUC (RBD block.) in [1] and in assay [14] were 283 and 141, respectively. The % inhibition (competition) turned out to be 43 in assay [2]; 61 in assay [6]; 67 in assay [9]; 77 in [10]; 80 in assay [13]. In addition, the values for the ELISA OD in assay [3], in assay [4] and in [5] were 0.1 OD, 3.5 OD and 0.1 OD, respectively. This molecule yielded a Kd in [7] of 162 nM. The S-Flow (%) in assay [8] amounted to 95%. This molecule came in with a S-Flow (MFI) in assay [8] of 270000 MFI. For the same molecule, the log10 ΔgMFI in assay [11] was determined as 4. The molecule also gave an AUC (RBD bind.) in [12] of 13.

B2: Cv2.3235 (recombinant human IgG1) (antibody)
heavy: B1 heavy with S31R, L50V, Y58F, L99G, N100D, A111T
light: DIQMTQSPSFLSASVGDRVTITCRASQGISSFLAWYQQKPGKAPKLLIYGASTLQSGVTSRFSGSGSGTEFTLTISSLQPEDFATYYCQRLDSYPPITFGQGTRLEIKRTVAAPSVFIFPPSDEQLKSGTASVVCLLNNFYPREAKVQWKVDNALQSGNSQESVTEQDSKDSTYSLSSTLTLSKADYEKHKVYACEVTHQGLSSPVTKSFNRGEC
B2: the AUC (RBD block.) in assay [1] was 229; in assay [14], 114. The % inhibition (competition) in assay [2] stood at 14; in assay [6], 37; in assay [9], 37; in assay [10], 47; in [13], 65. For the same molecule, the ELISA OD in assay [3] was found to be 0.2 OD; in [4], 3.9 OD; in assay [5] it was 0.2 OD. The molecule also returned a Kd in assay [7] of 280 nM. For the same molecule, in assay [8], the S-Flow (%) was found to be 97%. Besides, the S-Flow (MFI) in assay [8] was found to be 170000 MFI. Further, the log10 ΔgMFI in assay [11] worked out at 4. For the same molecule, the AUC (RBD bind.) in [12] was 13.

B3: Cv2.1353 (recombinant human IgG1) (antibody)
heavy: EVQLVESGGGLVQPGGSLRLSCAASGVTVSSNYMNWVRQAPGKGLEWVSVIYSGGSTFYADSVKGRFIISRDNSKNTLYLQMNSLKTEDTAVYYCARDLGPMGFDIWGQGTMVTVSSASTKGPSVFPLAPSSKSTSGGTAALGCLVKDYFPEPVTVSWNSGALTSGVHTFPAVLQSSGLYSLSSVVTVPSSSLGTQTYICNVNHKPSNTKVDKKVEPKSCDKTHTCPPCPAPELLGGPSVFLFPPKPKDTLMISRTPEVTCVVVDVSHEDPEVKFNWYVDGVEVHNAKTKPREEQYNSTYRVVSVLTVLHQDWLNGKEYKCKVSNKALPAPIEKTISKAKQPREPQVYTLPPSRDELTKNQVSLTCLVKGFYPSDIAVEWESNGQPENNYKTTPPVLDSDGSFFLYSKLTVDKSRWQQGNVFSCSVMHEALHNHYTQKSLSLSPGK
light: DIQMTQSPSFLSASVGDRVTITCRASQGISSYLAWYQQKPGKAPKLLIYAASTLQSGVPSRFSGSGSGTEFTLTISSLQPEDFATYYCQQLNSDPPVTFGPGTKVDIKRTVAAPSVFIFPPSDEQLKSGTASVVCLLNNFYPREAKVQWKVDNALQSGNSQESVTEQDSKDSTYSLSSTLTLSKADYEKHKVYACEVTHQGLSSPVTKSFNRGEC
Consider B3, for which the AUC (RBD block.) in [1] is 315; in [14], 158. For the same molecule, the % inhibition (competition) in assay [2] was determined as 62; in assay [6] it was 74; in [9], 74; in assay [10], 78; in [13], 80. Further, the values for the ELISA OD in assay [3], in assay [4] and in assay [5] were 0.1 OD, 3.5 OD and 0.1 OD, respectively. In addition, the figures for the Kd in [7] and in assay [15] were 2.24 nM and less than 0.001 nM, respectively. Further, the S-Flow (%) in assay [8] is 95%. In addition, in assay [8], the S-Flow (MFI) is 270000 MFI. The same molecule came in with a log10 ΔgMFI in assay [11] of 4. Moreover, the AUC (RBD bind.) in assay [12] amounted to 12; in assay [16], 13.

B4: COV2-2130 (antibody, V domains shown)
VH: EVQLVESGGGLVKPGGSLRLSCAASGFTFRDVWMSWVRQAPGKGLEWVGRIKSKIDGGTTDYAAPVKGRFTISRDDSKNTLYLQMNSLKTEDTAVYYCTTAGSYYYDTVGPGLPEGKFDYWGQGTLVTVSS
VL: not shown
Regarding B4, in assay [17], the AUC was found to be 3. In [18], the % binding inhibition was found to be 96%.

B5: Cilgavimab (antibody, V domains shown)
VH: B4 VH
VL: not shown
B5 had an OD405nm in assay [19] of 3.2.

B6: ADG-2 (antibody, V domains shown)
VH: EVQLVESGGGLVKPGGSLRLSCAASGFTFSSYYMNWVRQAPGKGLEWVSSISEDGYSTYYPDSLKGRFTISRDSAKNSLYLQMNSLRADDTAVYYCARDFSGHTAWAGTGFEYWGQGTLVTVSS
VL: QSVLTQPPSVSGAPGQRITISCTGSSSNIGAGYDVHWYQQLPGTAPKLLIYGSSSRNSGVPDRFSGSKSGTSASLAITGLQAEDEADYYCQSYDSSLSVLYTFGTGTKVTVL
As for B6, in [17], the AUC came to 3. The molecule also showed a % binding inhibition in assay [18] of 94%.

B7: Adintrevimab (antibody, V domains shown)
VH: B6 VH
VL: B6 VL
As to B7, the OD405nm in [19] amounted to 3.3. The same molecule yielded a log10 ΔgMFI in assay [20] of 4.4.

For the origin of these results see patent US20240336672A1.
